In the supplement of paper PMC9170038:

Test system: MS2 coat protein
Experiment: apparent KD of MS2 coat protein; designed switch direction (-1 OFF switch, 1 ON switch): 1; higher = weaker reporter binding
Method in brief: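 Normalised cluster fluorescence was curve-fitted, and each design's median over clusters is its apparent KD. Before this, SNAP-549-labelled MS2 coat protein was titrated from 0.7 or 1.5 nM, doubling to 3 µM, over RNA switches transcribed on Illumina chips by stalled E. coli RNA polymerase. Titrations had no input, 200 uM small-molecule ligand, or an oligonucleotide input, and steps lasted 0.8–1.5 h (lowest) to 10–20 min (highest).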

[1] = input ligand: microRNA oligo, concentration not stated
[2] = Eterna round: R95, input ligand: FMN 200 uM
[3] = Eterna round: R95, input ligand: microRNA oligo, concentration not stated
[4] = Eterna round: R95, input ligand: none

Sequence: AACAAUCUAUCUGAGGAUAUCAUGUCAAAGACAUGAGGAUCACCCAUGUUGCAGGAAACUGCUCAUGAGAAGGCAGAUAGAUUGA [SS2: 1129] (Eterna round: R96, puzzle: Same State 2)
- apparent KD of MS2 coat protein (input ligand: FMN 200 uM): 41 nM
- apparent KD of MS2 coat protein [1]: 329 nM
- apparent KD of MS2 coat protein (input ligand: none): 385 nM

Sequence: CUCGUAUCGGGAGGAUAUGGUGCCUUGUUGGUGCUAGAAGGUCCAACAUGAGGAUCACCCAUGUGCGAGUGGUUGAGAGACCGG [SS NG10LRO15] (Eterna round: R96, puzzle: Same State NG 1)
- apparent KD of MS2 coat protein (input ligand: FMN 200 uM): 336 nM
- apparent KD of MS2 coat protein [1]: 230 nM
- apparent KD of MS2 coat protein (input ligand: none): 399 nM

Sequence: AACUUACUAUCUCAGGAUAUCAUGUCAAAGACAUGAGGAUCACCCAUGUACCAGGAAACUGGUUAUGAGAAGGGAGAUAGUAAGA [Mat - Same State 2 - Mod - D49] (puzzle: Same State 2)
- apparent KD of MS2 coat protein [2]: 167 nM
- apparent KD of MS2 coat protein [3]: 128 nM
- apparent KD of MS2 coat protein [4]: 611 nM

Sequence: GUAGAACAUGAGGAUCACCCAUGUGAAGACGCAUGAGGAUAUAUACGUAAAUAGCAUACGAUAGAAGGCAUGAUAA [JR_SS001_Sub1703] (Eterna round: R96, puzzle: Same State 1)
- apparent KD of MS2 coat protein [1]: 40.6 nM

Sequence: UUAAUUAUGUAAGGAUAUACAUGAGGAUUUCUCGUAGAAGGUACAUUACAUGAGGAUCACCCAUGUGGGUGUCCGUAGACGCCA [JL SSNG1 1.06] (Eterna round: R96, puzzle: Same State NG 1)
- apparent KD of MS2 coat protein [1]: 475 nM

Sequence: AUAAGUUCGAUGCUCGUCUCUCCGUACUAACAUGAGGAUCACCCAUGUGAUCGGGCAGUAGCCCGAUCAGUAUGGCC [Bizain] (puzzle: Sensor for hsa-mir-208a)
- apparent KD of MS2 coat protein [2]: 90.7 nM
- apparent KD of MS2 coat protein [3]: 68.3 nM
- apparent KD of MS2 coat protein [4]: 114 nM

Sequence: UUAGCGACGGAAGGAUAUUGGACGCUAACAUGAGGAUCACCCAUGUAGAGGUCCUACCAACAGCGCAAGAAGGUCCGAUCAGCA [Eternabot solution 13] (Eterna round: R96, puzzle: Same State NG 2)
- apparent KD of MS2 coat protein (input ligand: FMN 200 uM): 22.7 nM
- apparent KD of MS2 coat protein [1]: 8.94 nM
- apparent KD of MS2 coat protein (input ligand: none): 13.3 nM

Sequence: GGAGCCGGCCUAGGAUAUUUCAUAAUUUAACAUGAGGAUCACCCAUGUAGGCCAGAAGGCCUUGGGAAGAAGGAGGUCGGCUCC [Loop Effect - U26,U27,U28] (Eterna round: R96, puzzle: Same State NG 2)
- apparent KD of MS2 coat protein (input ligand: FMN 200 uM): 17.4 nM
- apparent KD of MS2 coat protein [1]: 53.6 nM
- apparent KD of MS2 coat protein (input ligand: none): 76.9 nM

Sequence: UCUUGGUUUUUGCUCGUUUUUUGUGUUGAACAUGAGGAUCACCCAUGUAUUGUACGGUCCAGUUUAAUAGUGGUCCG [JMF 31] (puzzle: Sensor for hsa-mir-208a)
- apparent KD of MS2 coat protein [2]: 25.8 nM
- apparent KD of MS2 coat protein [3]: 13.4 nM
- apparent KD of MS2 coat protein [4]: 23.8 nM

Sequence: CCGCUCCGUGGAGGAUAUGGGCCUGCCCGGGAUACCGGGCCUAACACAUGAGGAUCACCCAUGUCCCAGAAGGCCGCUGGAGCC [Rasoleis] (Eterna round: R96, puzzle: Same State NG 2)
- apparent KD of MS2 coat protein (input ligand: FMN 200 uM): 18.9 nM
- apparent KD of MS2 coat protein [1]: 85.1 nM
- apparent KD of MS2 coat protein (input ligand: none): 58.2 nM

Sequence: UGUUGUAUUACAGGAUAUCUAUUGUUGUUAUUUAGAGAAGGGUAUUCACAUGAGGAUCACCCAUGUAUAUACGAGGAAGUUGUG [JMF's solution 75] (Eterna round: R96, puzzle: Same State NG 1)
- apparent KD of MS2 coat protein [1]: 41.9 nM

Sequence: UGAAAACAUGAGGAUCACCCAUGUAUUAUUAUGGGAGGAUAUGGGAAUUAAUUAAUUAAACCAGAAGGCCUAAAGU [Mat - Same State 1 - D89] (puzzle: Same State 1)
- apparent KD of MS2 coat protein [2]: 24.7 nM
- apparent KD of MS2 coat protein [3]: 57.2 nM
- apparent KD of MS2 coat protein [4]: 52.6 nM

Sequence: GUGAGAUGUUCAGGAUAUUUCAGGAUAGUUAAUCCAAGGCCAUCACAUGAGGAUCACCCAUGUCGAGAGAAGGGAAUUCUCAGG [Eternabot solution 43] (Eterna round: R96, puzzle: Same State NG 2)
- apparent KD of MS2 coat protein (input ligand: FMN 200 uM): 378 nM
- apparent KD of MS2 coat protein [1]: 331 nM
- apparent KD of MS2 coat protein (input ligand: none): 433 nM

Sequence: ACUUACAUGGUAGGAUAUGUCCGUCUAGCUGACACAGAAGGGCCAAGCUCUACGACAUGAGGAUCACCCAUGUGAAGGAGAGGC [Eternabot solution 49] (Eterna round: R96, puzzle: Same State NG 1)
- apparent KD of MS2 coat protein (input ligand: FMN 200 uM): 15.1 nM
- apparent KD of MS2 coat protein [1]: 13.6 nM
- apparent KD of MS2 coat protein (input ligand: none): 18.3 nM

Sequence: GCCAUCGUGUGAGGAUAUGGCACCGUUUCGGUGCCAGAAGGCAUGUCAAUUGACAUGAGGAUCACCCAUGUAUUAGCGAUGGCA [JL Fiskers NG1ss - 33 mod 3] (Eterna round: R96, puzzle: Same State NG 1)
- apparent KD of MS2 coat protein (input ligand: FMN 200 uM): 159 nM
- apparent KD of MS2 coat protein [1]: 292 nM
- apparent KD of MS2 coat protein (input ligand: none): 988 nM

Sequence: AAUUAAGAUCAAGGAUAUCACGUCGAUUAGACGUGAGAAGGUGAUCCAUACAUGAGGAUCACCCAUGUAUAACAUGAAUUAAUU [SSNG1/8-B2] (Eterna round: R96, puzzle: Same State NG 1)
- apparent KD of MS2 coat protein (input ligand: FMN 200 uM): 395 nM
- apparent KD of MS2 coat protein [1]: 626 nM
- apparent KD of MS2 coat protein (input ligand: none): 1580 nM

Sequence: AGAAAACAUGAGGAUCACCCAUGUAUAGUGAAUACAGGAUAUCACCGACGGAAUAAUUGGUGAGAAGGGUGAUCGC [Ceaqu] (puzzle: Same State 1)
- apparent KD of MS2 coat protein [2]: 21.2 nM
- apparent KD of MS2 coat protein [3]: 11.8 nM
- apparent KD of MS2 coat protein [4]: 23.2 nM

Sequence: CAGCGCUGUUGAGAGGAUAUGCGGUGAUGGACAUGAGGAUCACCCAUGUUAGCGACAGCAUUACGGUAGAAGGCUCCACAGCUGC [Soteed Omei mod 14] (puzzle: Same State 2)
- apparent KD of MS2 coat protein [3]: 17.9 nM

Sequence: AUUAAACAUGAGGAUCACCCAUGUCAACAAAGUCGAGGAUAUGGGCAUAUUAUCUUAUAACCAGAAGGCGAAUAAU [salish99_ss1_r3_086] (puzzle: Same State 1)
- apparent KD of MS2 coat protein [3]: 155 nM

Sequence: UGCCUGAGUCGAGGAUAUUAUGGAUCCUCUAAUACAUGAGGAUCACCCAUGUAAUUAAUUAUACAUGAGAAGGCGACUCAGGCU [SSNG2/12-A1] (Eterna round: R96, puzzle: Same State NG 2)
- apparent KD of MS2 coat protein (input ligand: FMN 200 uM): 304 nM
- apparent KD of MS2 coat protein [1]: 22.3 nM
- apparent KD of MS2 coat protein (input ligand: none): 46.5 nM

Sequence: AGUCCAGCCUGAGCUGGACAAAAGCAUGUACAUGAGGAUCACCCAUGUUCAUGUACAAGCUUUUUGCUCGUCUUAUA [salish99_208a_r3_043] (puzzle: Sensor for hsa-mir-208a)
- apparent KD of MS2 coat protein [2]: 528 nM
- apparent KD of MS2 coat protein [3]: 14.6 nM
- apparent KD of MS2 coat protein [4]: 697 nM

Sequence: GGUCGGACCUACAUGAGGAUCACCCAUGUUCCGGAAACGGCAUAGGAUAUCUGUCCGAAAAGGUCAGAGAAGGGUGAACCGACC [Fiskers NG3ss - 74] (Eterna round: R96, puzzle: Same State NG 3)
- apparent KD of MS2 coat protein (input ligand: FMN 200 uM): 145 nM
- apparent KD of MS2 coat protein [1]: 160 nM
- apparent KD of MS2 coat protein (input ligand: none): 162 nM

Sequence: UAUAAACAUGAGGAUCACCCAUGUAAUAAUAUGGGAGGAUAUCAGAAUGUAUGUAUGUAAUGAGAAGGCCUAAUAU [Mat - Same State 1 - Mod of Eli - D70] (puzzle: Same State 1)
- apparent KD of MS2 coat protein [2]: 54.4 nM
- apparent KD of MS2 coat protein [3]: 268 nM
- apparent KD of MS2 coat protein [4]: 1270 nM

Sequence: UUGAAUAAUUAAGGAUAUCGAGUCAAGAUGUUAAACAUGAGGAUCACCCAUGUGGGUUGCGGUAUCGAGAAGGUAAAUAAGAAG [Mat - Same State NG 2 - JL mod - D55] (Eterna round: R96, puzzle: Same State NG 2)
- apparent KD of MS2 coat protein (input ligand: FMN 200 uM): 26.6 nM
- apparent KD of MS2 coat protein [1]: 19.6 nM
- apparent KD of MS2 coat protein (input ligand: none): 42.5 nM

Sequence: GGUACUAUCACAGGAUAUGCUAUCCUUUGGGUAGCAGAAGGGUGGUACAUGAGGAUCACCCAUGUGGUGCCAGGGCGUGAGCCC [JL SSNG1 1.97] (Eterna round: R96, puzzle: Same State NG 1)
- apparent KD of MS2 coat protein (input ligand: FMN 200 uM): 200 nM
- apparent KD of MS2 coat protein [1]: 67.9 nM
- apparent KD of MS2 coat protein (input ligand: none): 318 nM

Sequence: ACCCAAAGUAUAUGGGAACGAGCUUUUUAACAUGAGGAUCACCCAUGUACUCGUCUUAUAAGCAGUCGAAAGACUGC [Sensor 100 - 3] (puzzle: Sensor for hsa-mir-208a)
- apparent KD of MS2 coat protein [2]: 359 nM
- apparent KD of MS2 coat protein [3]: 19.2 nM
- apparent KD of MS2 coat protein [4]: 390 nM

Sequence: ACAUGAGAGCGAGGAUAUAUUGUACCUACAUGUGACAUGAGGAUCACCCAUGUGGUAAGUAUGACAUAGAAGGCGCAGAUAUGU [Equivalance 91 - Jieux - Same State NG 2] (Eterna round: R96, puzzle: Same State NG 2)
- apparent KD of MS2 coat protein (input ligand: FMN 200 uM): 21.4 nM
- apparent KD of MS2 coat protein [1]: 27.8 nM
- apparent KD of MS2 coat protein (input ligand: none): 33.7 nM

Sequence: CGUCCGGCCUGUGCUGGCCGGUAGCUUGUACAUGAGGAUCACCCAUGUUCUUGUGCAGGCUUUUUGCUCGUCUUGUG [salish99_mir208a_016] (puzzle: Sensor for hsa-mir-208a)
- apparent KD of MS2 coat protein [2]: 365 nM
- apparent KD of MS2 coat protein [3]: 23.9 nM
- apparent KD of MS2 coat protein [4]: 452 nM

Sequence: CAGAGCCCAUGGGCCUGACAUGAGGAUCACCCAUGUGGCUUUGAGGAUAUAAGCGGAAACACCGCUUAGAAGGCGAAGCCUAAC [Atxerati] (Eterna round: R96, puzzle: Same State NG 3)
- apparent KD of MS2 coat protein (input ligand: FMN 200 uM): 79.5 nM
- apparent KD of MS2 coat protein [1]: 18.7 nM
- apparent KD of MS2 coat protein (input ligand: none): 34.3 nM

Sequence: UCUUGGUUUUUGCUCGUUUUUUGUGUUGAACAUGAGGAUCACCCAUGUAUUGUACGGUCCAAUUUGGUGGUAGUCCG [JMF 68] (puzzle: Sensor for hsa-mir-208a)
- apparent KD of MS2 coat protein [2]: 40.4 nM
- apparent KD of MS2 coat protein [3]: 29.6 nM
- apparent KD of MS2 coat protein [4]: 46.9 nM

Sequence: CUGAGCAGUCAAGGAUAUCACGUCGAUUAGACGUGAGAAGGUGACCAAUACAUGAGGAUCACCCAUGUAAUACAUGAAGCUCAG [SSNG1/12-A2] (Eterna round: R96, puzzle: Same State NG 1)
- apparent KD of MS2 coat protein (input ligand: FMN 200 uM): 20.4 nM
- apparent KD of MS2 coat protein [1]: 28.5 nM
- apparent KD of MS2 coat protein (input ligand: none): 39.5 nM

Sequence: UUCUCAUUUACAUGAGGAUCACCCAUGUUUUUUUGUCGGAAAUAGGAUAUAGGUCUCUCGUUUUACUAGAAGGAUUUCCUUAUU [JR_SSNG3_Sub089] (Eterna round: R96, puzzle: Same State NG 3)
- apparent KD of MS2 coat protein (input ligand: FMN 200 uM): 70.4 nM
- apparent KD of MS2 coat protein [1]: 70.7 nM
- apparent KD of MS2 coat protein (input ligand: none): 58.9 nM
